Target: Cry1 (UniProt P97784)
Experiment: co-IP, immunoblot
Details: reference: wild-type Hausp; sites S18

Hausp (Usp7), Hausp-V5 (from UniProt Q93009) Hausp S18A
binding against the reference: stronger

— publication PMC4352707
